Source: PMC12246476, “Enhancement of enzymatic activity by biomolecular condensates through pH buffering” (Nature Communications, 2025)

Columns and labels:
[1] = target: T1, Aryl Alcohol Oxidase (AAOx) (Pleurotus eryngii, UniProt O94219); experiment: absorbance of cinnamyl aldehyde at […] nm; type: biochemical; conditions: 5 nM enzyme, 250 µM substrate, pH 5.5-7.5, 10 mM ionic strength Tris/Bis-Tris, 30 mM NaCl
T1 construct: gene aao; N-terminal His-tag, pET-15b, E. coli BL21-GOLD; FAD added during purification; IMAC and SEC
T1 sequence (O94219 22-593): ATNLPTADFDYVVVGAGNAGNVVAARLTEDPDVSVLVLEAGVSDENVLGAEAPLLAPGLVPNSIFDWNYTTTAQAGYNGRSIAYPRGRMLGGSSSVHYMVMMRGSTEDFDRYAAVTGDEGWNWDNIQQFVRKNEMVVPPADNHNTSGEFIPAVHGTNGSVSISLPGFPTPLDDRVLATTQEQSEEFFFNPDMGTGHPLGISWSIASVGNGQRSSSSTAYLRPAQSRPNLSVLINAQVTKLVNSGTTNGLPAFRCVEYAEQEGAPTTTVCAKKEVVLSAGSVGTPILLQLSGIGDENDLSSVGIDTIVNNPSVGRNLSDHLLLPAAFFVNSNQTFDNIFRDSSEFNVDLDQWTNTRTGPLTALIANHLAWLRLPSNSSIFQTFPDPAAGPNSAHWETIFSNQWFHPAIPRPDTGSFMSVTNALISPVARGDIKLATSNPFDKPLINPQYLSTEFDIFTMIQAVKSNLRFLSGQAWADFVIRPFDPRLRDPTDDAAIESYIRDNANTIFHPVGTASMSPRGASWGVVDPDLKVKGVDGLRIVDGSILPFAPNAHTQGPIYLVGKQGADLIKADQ

[2] = substrate: CCCC(=O)Oc1ccc2c(C)cc(=O)oc2c1; experiment: fluorescence of released 4-methylumbelliferone, initial rates, Michaelis-Menten fit; type: biochemical, Geobacillus thermocatenulatus; conditions: homogeneous enzyme, 0.5 µM, 24 mM Tris, 10 mM NaCl, pH 7.5, substrate solubility kept concentrations below the KM
Text: fluorescence of released 4-methylumbelliferone, initial rates, Michaelis-Menten fit on BTL2 (Bacillus thermocatenulatus Lipase 2)

OC/C=C/c1ccccc1 [CAlc, Cinnamyl Alcohol]
absorbance of cinnamyl aldehyde at 310 nm [1]: measuring the rate of the oxidation reaction of CAlc to CAld catalyzed by AAOx

B1: BTL2 (Bacillus thermocatenulatus Lipase 2) (Geobacillus thermocatenulatus) (protein)
chain: ASPRANDAPIVLLHGFTGWGREEMLGFKYWGGVRGDIEQWLNDNGYRTYTLAVGPLSSNWDRACEAYAQLVGGTVDYGAAHAAKHGHARFGRTYPGLLPELKRGGRVHIIAHSQGGQTARMLVSLLENGSQEEREYAKAHNVSLSPLFEGGHHFVLSVTTIATPHDGTTLVNMVDFTDRFFDLQKAVLKAAAVASNVPYTSQVYDFKLDQWGLRRQPGESFDHYFERLKRSPVWTSTDTARYDLSIPGAEKLNQWVQASPNTYYLSFSTERTHRGALTGNYYPELGMNAFSAVVCAPFLGSYRNEALGIDDRWLENDGIVNTVSMNGPKRGSSDRIVPYDGTLKKGVWNDMGTCNVDHLEVIGVDPNPSFDIRAFYLRLAEQLASLRP
notes: N-terminal His-tag, pET-15b, E. coli BL21-GOLD; IMAC and SEC
Km [2]: 713 ± 281 µM | Vmax [2]: 126 µM/min | kcat [2]: 4.3 ± 1.2 s⁻¹
